Assay results taken from patent US20220073586A1 (EUTILEX, published 2022).
Changes are numbered by the printed parent chain. Blank lines part the entries; values can stand above or below the binder they belong to.

Assays:
[1] = target: PD-L1 molecules (Sino, Cat #10084-H08H) (UniProt Q9NZQ7 19-238); assay: SPR, Biacore T200; PD-1 Fc fusion fixed on CM5 chip, PD-L1 injected at 3.125-100 nM
[2] = target: T1, PD-L1 antigen (coated on 96-well immunoplate) (UniProt Q9NZQ7 19-238, limits assumed); assay: single antigen ELISA, PD-L1 coated at 1 ug/mL, detection with anti-hFc-HRP
T1 construct: also called antigen PD-L1
Protocol: (§1) Briefly, after coating PD-L1 antigen or PD-L2 antigen at a concentration of 1 μg/ml in a 96-well immunoplate at 4° C. overnight, 150 μl of 1× assay buffer (Biolegend) was treated for 1 hour to block non-specific binding. […] The treatment concentration on the antigen PD-L1-coated plate was serially diluted from 30 μg/mL to 3 times to make a total of 15 points, The treatment concentration on the antigen PD-L2 coated plate was serially diluted 3 times from 100 μg/mL to a total of 12 points. Anti-hFc-HRP (Biolegend) was treated with 100 μl at a concentration of 0.4 μg/mL. After incubation for 1 hour, color was developed with TMB, and after 3 minutes, the reaction was stopped using sulfuric acid. Washing was performed 3 times using washing buffer in all processes except for the process after TMB treatment, All processes except for the antigen coating process were carried out at room temperature.

[3] = target: T2, PD-L2 antigen (coated on 96-well immunoplate) (UniProt Q9BQ51 20-220, limits assumed); assay: single antigen ELISA, PD-L2 coated at 1 ug/mL, detection with anti-hFc-HRP
T2 construct: also called antigen PD-L2
T2 sequence (looked up): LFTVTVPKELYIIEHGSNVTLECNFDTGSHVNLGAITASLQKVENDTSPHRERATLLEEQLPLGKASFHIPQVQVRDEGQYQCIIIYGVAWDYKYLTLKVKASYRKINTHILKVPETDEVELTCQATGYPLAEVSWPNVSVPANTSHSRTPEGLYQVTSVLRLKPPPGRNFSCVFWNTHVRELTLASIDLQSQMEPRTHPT
Protocol: as §1

PD-L1 molecules (Sino, Cat #10084-H08H), sequence (Q9NZQ7 19-238 limits assumed): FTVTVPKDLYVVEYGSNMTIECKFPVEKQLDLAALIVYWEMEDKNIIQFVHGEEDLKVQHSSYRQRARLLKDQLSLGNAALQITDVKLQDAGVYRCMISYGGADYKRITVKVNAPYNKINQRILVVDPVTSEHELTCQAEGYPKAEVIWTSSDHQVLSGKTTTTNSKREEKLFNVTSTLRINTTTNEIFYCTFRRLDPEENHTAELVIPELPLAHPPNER
T1 sequence (Q9NZQ7 19-238 limits assumed): as above

Kd [1]: 1.04 nM
koff [1]: 0.00182 s⁻¹
kon [1]: 1.76e+06 M⁻¹ s⁻¹
B1: PD-1.m8 Fc fusion protein (Fc fusion)
chain: FLESPDRPWNAPTFSPALLLVAEGDNATFTCSFSNASESFHVVWHRESPSGQTDTLAAFPEDRSQPGQDHRFRVTRLPNGRDFHMSVVRAQRNDSGTYVCGVISLAPKIQIKESLGAELRVTERRAEVPTAHPSPSPRPAGQFQTLVVGGGGGSSNTKVDKRVEPKSCDKTHTCPPCPAPPVAGPSVFLFPPKPKDTLMISRTPEVTCVVVDVSHEDPEVQFNWYVDGVEVHNAKTKPREEQFNSTFRVVSVLTVVHQDWLNGKEYKCKVSNKGLPAPIEKTISKTKGQPREPQVYTLPPSREEMTKNQVSLTCLVKGFYPSDIAVEWESNGQPENNYKTTPPMLDSDGSFFLYSKLTVDKSRWQQGNVFSCSVMHEALHNHYTQKSLSLSPGK

Kd [1]: 0.714 nM
koff [1]: 0.0013 s⁻¹
kon [1]: 1.82e+06 M⁻¹ s⁻¹
EC50 (read off the curve) [2]: ~0.03 µg/mL
binding result [3]: no binding (tested: 100 ug/mL)
B2: euPD-1 Fc fusion protein (Fc fusion)
chain: B1 chain with G116R

Kd [1]: 1.1 nM
koff [1]: 0.00216 s⁻¹
kon [1]: 1.96e+06 M⁻¹ s⁻¹
B3: PD-1.m7 Fc fusion protein (Fc fusion)
chain: B1 chain with H70C, Q91R
